From article PMC6299093, “BRCA2 controls DNA:RNA hybrid level at DSBs by mediating RNase H2 recruitment”

Experiments:
[1] = target: T1, BRCA1 (Homo sapiens, UniProt P38398 1-1863); assay: EMSA; 1 mM EDTA; 10 nM substrate; 25 mM Tris-HCl pH 7.5, 90 mM KCl, 1 mM EDTA, 1 mM DTT, 0.1 mg/ml BSA, RNaseOUT; 37 C 30 min; 10 nM substrate (competition: 1 nM, 10 + 10 min); 6% native PAGE at 4 C; conditions: protein: recombinant; tags: C-terminal 10xHis; N-terminal 2xMBP cleaved off with PreScission; blunt
[2] = target: T2, BRCA1;BARD1 (Homo sapiens;Homo sapiens, UniProt P38398;Q99728 1-1863;1-777, |); assay: EMSA; 1 mM EDTA; 10 nM substrate; resistant to increasing salt (Supplementary Fig. 5a); 25 mM Tris-HCl pH 7.5, 90 mM KCl, 1 mM EDTA, 1 mM DTT, 0.1 mg/ml BSA, RNaseOUT; 37 C 30 min; 10 nM substrate (competition: 1 nM, 10 + 10 min); 6% native PAGE at 4 C; conditions: protein: recombinant;recombinant; tags: C-terminal 10xHis; N-terminal 2xMBP cleaved off with PreScission;; copies: 1;1; blunt
[3] = target: T1, BRCA1; assay: EMSA; 1 mM EDTA; 10 nM substrate; affinity comparable to dsDNA; 25 mM Tris-HCl pH 7.5, 90 mM KCl, 1 mM EDTA, 1 mM DTT, 0.1 mg/ml BSA, RNaseOUT; 37 C 30 min; 10 nM substrate (competition: 1 nM, 10 + 10 min); 6% native PAGE at 4 C; conditions: protein: recombinant; tags: C-terminal 10xHis; N-terminal 2xMBP cleaved off with PreScission; blunt
[4] = target: T2, BRCA1;BARD1; assay: EMSA; 1 mM EDTA; 10 nM substrate; affinity comparable to dsDNA; resistant to increasing salt (Supplementary Fig. 5a); 25 mM Tris-HCl pH 7.5, 90 mM KCl, 1 mM EDTA, 1 mM DTT, 0.1 mg/ml BSA, RNaseOUT; 37 C 30 min; 10 nM substrate (competition: 1 nM, 10 + 10 min); 6% native PAGE at 4 C; conditions: protein: recombinant;recombinant; tags: C-terminal 10xHis; N-terminal 2xMBP cleaved off with PreScission;; copies: 1;1; blunt

Binder	binding result [1]	binding result [2]	binding result [3]	binding result [4]
X12-3/X12-4C dsDNA 50 bp (dsDNA) DNA 1: GACGTCATAGACGATTACATTGCTAGGACATGCTGTCTAGAGACTATCGC DNA 2: GCGATAGTCTCTAGACAGCATGTCCTAGCAATGTAATCGTCTATGACGTC	binds	binds	–	–
X12-3 DNA/X12-4C RNA hybrid 50 bp (DNA:RNA, second strand RNA) DNA: GACGTCATAGACGATTACATTGCTAGGACATGCTGTCTAGAGACTATCGC RNA: GCGAUAGUCUCUAGACAGCAUGUCCUAGCAAUGUAAUCGUCUAUGACGUC	–	–	binds	binds
